This note sets out measurements from paper PMC9710867, “Molecular architecture of the Chikungunya virus replication complex” (Science Advances, 2022).

What is called stoichiometry N is the number of molecules, sites or subunits per partner or assembly.

To fix the notation:
B1: CHIKV nsP1 mutant (H37A; amino acids 1 to 535) with internal StrepII-3XFLAG (enzyme)
chain: MDPVYVDIDADSAFLKALQRAYPMFEVEPRQVTPNDAANARAFSHLAIKLIEQEIDPDSTILDIGSAPARRMMSDRKYHCVCPMRSAEDPERLANYARKLASAAGKVLDRNISGKIGDLQAVMAVPDTETPTFCLHTDVSCRQRADVAIYQDVYAVHAPTSLYHQAIKGVRLAYWVGFDTTPFMYNAMAGAYPSYSTNWADEQVLKAKNIGLCSTDLTEGRRGKLSIMRGKKLEPCDRVLFSVGSTLYPESRKLLKSWHLPSVFHLKGKLSFTCRCDTVVSCEGYVVKRITMSPGLYGKTTGYAVTHHADGFLMCKTTDTVDGERVSFSVCTYVPATICDQMTGILATEVTPEDAQKLLVGLNQRIVVNGRTQRNTNTMKNYMIPVVAQAFSKWAKECRKDMEDEKLLGVRERTLTCCCLWAFKKQKTHTVYKRPDTQSIQKVQAEFDSFVVPSLWSSGLSIPLRTRIKWLLSKVPKTDLTPYSGDAQEARDAEKEAEEEREAELTLEALPPLQAAQEDVQVEIDVEQLEDRAGA
notes: nonstructural protein 1 (nsP1) of chikungunya virus, amino acids 1 to 535 of the nonstructural polyprotein; also called nsP1 ring; nsP1 dodecameric ring; not shown: StrepII, internal (after residue 516), kept; copies: 12
B2: CHIKV nsP2, full length (amino acids 536 to 1333) (enzyme)
chain: GIIETPRGAIKVTAQPTDHVVGEYLVLSPQTVLRSQKLSLIHALAEQVKTCTHSGRAGRYAVEAYDGRVLVPSGYAISPEDFQSLSESATMVYNEREFVNRKLHHIAMHGPALNTDEESYELVRAERTEHEYVYDVDQRRCCKKEEAAGLVLVGDLTNPPYHEFAYEGLKIRPACPYKIAVIGVFGVPGSGKSAIIKNLVTRQDLVTSGKKENCQEITTDVMRQRGLEISARTVDSLLLNGCNRPVDVLYVDEAFACHSGTLLALIALVRPRQKVVLCGDPKQCGFFNMMQMKVNYNHNICTQVYHKSISRRCTLPVTAIVSSLHYEGKMRTTNEYNKPIVVDTTGSTKPDPGDLVLTCFRGWVKQLQIDYRGHEVMTAAASQGLTRKGVYAVRQKVNENPLYASTSEHVNVLLTRTEGKLVWKTLSGDPWIKTLQNPPKGNFKATIKEWEVEHASIMAGICSHQMTFDTFQNKANVCWAKSLVPILETAGIKLNDRQWSQIIQAFKEDKAYSPEVALNEICTRMYGVDLDSGLFSKPLVSVYYADNHWDNRPGGKMFGFNPEAASILERKYPFTKGKWNINKQICVTTRRIEDFNPTTNIIPANRRLPHSLVAEHRPVKGERMEWLVNKINGHHVLLVSGCSLALPTKRVTWVAPLGVRGADYTYNLELGLPATLGRYDLVVINIHTPFRIHHYQQCVDHAMKLQMLGGDSLRLLKPGGSLLIRAYGYADRTSERVICVLGRKFRSSRALKPPCVTSNTEMFFLFSNFDNGRRNFTTHVMNNQLNAAFVGQATRAGC
notes: nonstructural protein 2 (nsP2) of chikungunya virus, full length, amino acids 536 to 1333 of the nonstructural polyprotein; Contact residues in the text (R56, R59, Y60, R101; nsP2h 1 to 465) count on nsP2 itself; The His6-SUMO tag is called cleavable; Only the helicase region is built in the cryo-EM model; also called nsP2 helicase-protease
B3: ONNV nsP4, full length (amino acids 1904 to 2514) (enzyme)
chain: IFSSDTGQGHLQQKSVRQTTLPVNIVEEVHEEKCYPPKLDEIKEQLLLKRLQESASTANRSRYQSRKVENMKATIIHRLKEGCRLYLASDTPRVPSYRITYPAPVYSPSISIKLNNPETAVAVCNEFLARNYPTVASYQVTDEYDAYLDMVDGSESCLDRATFNPSKLRSYPKQHSYHAPTIRSAVPSPFQNTLQNVLAAATKRNCNVTQMRELPTMDSAVFNVECFKKYACNQEYWREFASSPIRVTTENLTMYVTKLKGPKAAALFAKTHNLLPLQEVPMDRFTMDMKRDVKVTPGTKHTEERPKVQVIQAAEPLATAYLCGIHRELVRRLNAVLLPNVHTLFDMSAEDFDAIISTHFKPGDAVLETDIASFDKSQDDSLALTAMMLLEDLGVDQPILDLIEAAFGEISSCHLPTGTRFKFGAMMKSGMFLTLFVNTLLNITIASRVLEERLTTSACAAFIGDDNIIHGVVSDALMAARCATWMNMEVKIIDAVVSEKAPYFCGGFILHDTVTGTSCRVADPLKRLFKLGKPLAAGDEQDEDRRRALADEVTRWQRTGLITELEKAVYSRYEVQGITAVITSMATFASSKENFKKLRGPVVTLYGGPK
notes: Contact residues in the text (D219, E392, D393, D402, E405; NTD 1 to 105) count on nsP4 itself; also called o'nyong-nyong virus nsP4; nsP4 RdRp

What all share (assay): cryo-EM structure; single-particle cryo-EM of the reconstituted nsP1 + 2 + 4 RC core mixed with T2 RNA and NTP in 1x buffer Z at 1:10:100 molar ratio; C1, 2.8 Å
Series [1] deals with the molecule itself.
Series [2] concerns the target B3. Particulars: both partners purified.
Series [3] has as its target B1. As to conditions: both partners purified.

Consider B1, for which, in series [1], the “stoichiometry N” value is 12.

On to B2, for which the “stoichiometry N” value in series [2] came to 1 nsP2 per nsP4.

Consider B3, for which the “stoichiometry N” value in series [3] is 12 nsP1 per nsP4.
